Assay results reported in publication PMC2756145.
Changes are numbered by the printed parent chain.

Legend:
Pot1-DBD = molecular target: T1, Pot1-DBD (Schizosaccharomyces pombe, UniProt O13988 1-389); test: filter binding
T1 sequence: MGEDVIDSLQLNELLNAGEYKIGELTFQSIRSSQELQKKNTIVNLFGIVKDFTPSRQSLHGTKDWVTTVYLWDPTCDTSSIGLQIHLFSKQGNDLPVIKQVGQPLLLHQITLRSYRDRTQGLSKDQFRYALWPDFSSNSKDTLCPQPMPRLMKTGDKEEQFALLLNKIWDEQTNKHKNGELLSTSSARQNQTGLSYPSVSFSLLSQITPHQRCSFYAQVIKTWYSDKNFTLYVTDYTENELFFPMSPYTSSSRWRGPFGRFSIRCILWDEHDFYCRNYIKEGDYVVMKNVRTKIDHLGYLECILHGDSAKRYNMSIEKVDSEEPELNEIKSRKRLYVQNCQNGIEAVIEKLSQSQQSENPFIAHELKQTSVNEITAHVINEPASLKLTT

Pot1pC = molecular target: T2, Pot1pC (Schizosaccharomyces pombe, UniProt O13988 178-389); test: EMSA
T2 sequence: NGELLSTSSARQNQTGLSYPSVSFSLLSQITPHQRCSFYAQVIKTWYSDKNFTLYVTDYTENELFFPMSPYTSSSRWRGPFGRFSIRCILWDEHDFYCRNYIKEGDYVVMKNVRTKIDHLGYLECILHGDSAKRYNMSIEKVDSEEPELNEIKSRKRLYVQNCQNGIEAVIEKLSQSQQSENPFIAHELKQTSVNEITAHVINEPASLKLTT

Pot1-DBD_L122A = molecular target: T3, Pot1-DBD_L122A (Schizosaccharomyces pombe, UniProt O13988 1-389, L122A); test: filter binding
T3 sequence: T1 sequence with L122A

Pot1-DBD_Q91A = molecular target: T4, Pot1-DBD_Q91A (Schizosaccharomyces pombe, UniProt O13988 1-389, Q91A); test: filter binding
T4 sequence: T1 sequence with Q91A

Pot1-DBD_V97A = molecular target: T5, Pot1-DBD_V97A (Schizosaccharomyces pombe, UniProt O13988 1-389, V97A); test: filter binding
T5 sequence: T1 sequence with V97A

B1: 12mer (ssDNA)
DNA: GGTTACGGTTAC
- Kd (Pot1-DBD): 1 ± 0.1 nM
- Kd (Pot1pC): 700 ± 200 nM
- Kd (Pot1-DBD_L122A): 90 ± 7 nM
- Kd (Pot1-DBD_Q91A): 7 ± 0.6 nM
- Kd (Pot1-DBD_V97A): 10 ± 1 nM
